From patent US20240115701A1

Assays:
[1] = biological target: MabSelect Sure Protein A ligand (protein A resin, GE Healthcare); assay: batch resin-slurry partitioning on MabSelect Sure protein A resin; Elute: 20 mM NaAcetate, pH 3.5; reference mAb1
[2] = biological target: MabSelect Sure Protein A ligand (protein A resin, GE Healthcare); assay: batch resin-slurry partitioning on MabSelect Sure protein A resin; Strip: 100 mM acetic acid; reference mAb2
[3] = biological target: MabSelect Sure Protein A ligand (protein A resin, GE Healthcare); assay: partitioning on protein A resin under loading conditions; reference mAb3
[4] = biological target: MabSelect Sure Protein A ligand (protein A resin, GE Healthcare); assay: batch resin-slurry partitioning on MabSelect Sure protein A resin; Equil/wash: 10 mM NaPhosphate, pH 6.5; reference mAb2
[5] = biological target: MabSelect Sure Protein A ligand (protein A resin, GE Healthcare); assay: batch resin-slurry partitioning on MabSelect Sure protein A resin; High salt wash: 10 mM NaPhosphate, pH 6.5, 0.5M NaCl; reference mAb2
[6] = biological target: MabSelect Sure Protein A ligand (protein A resin, GE Healthcare); assay: batch resin-slurry partitioning on MabSelect Sure protein A resin; Elute: 20 mM NaAcetate, pH 3.5
[7] = biological target: MabSelect Sure Protein A ligand (protein A resin, GE Healthcare); assay: batch resin-slurry partitioning on MabSelect Sure protein A resin; Equil/wash: 10 mM NaPhosphate, pH 6.5; reference mAb1
[8] = biological target: MabSelect Sure Protein A ligand (protein A resin, GE Healthcare); assay: batch resin-slurry partitioning on MabSelect Sure protein A resin; Equil/wash: 10 mM NaPhosphate, pH 6.5
[9] = biological target: MabSelect Sure Protein A ligand (protein A resin, GE Healthcare); assay: batch resin-slurry partitioning on MabSelect Sure protein A resin; Strip: 100 mM acetic acid; reference mAb1
[10] = biological target: MabSelect Sure Protein A ligand (protein A resin, GE Healthcare); assay: batch resin-slurry partitioning on MabSelect Sure protein A resin; High salt wash: 10 mM NaPhosphate, pH 6.5, 0.5M NaCl
[11] = biological target: MabSelect Sure Protein A ligand (protein A resin, GE Healthcare); assay: batch resin-slurry partitioning on MabSelect Sure protein A resin; Strip: 100 mM acetic acid
[12] = biological target: MabSelect Sure Protein A ligand (protein A resin, GE Healthcare); assay: batch resin-slurry partitioning on MabSelect Sure protein A resin; High salt wash: 10 mM NaPhosphate, pH 6.5, 0.5M NaCl; reference mAb1
[13] = biological target: MabSelect Sure Protein A ligand (protein A resin, GE Healthcare); assay: batch resin-slurry partitioning on MabSelect Sure protein A resin; Elute: 20 mM NaAcetate, pH 3.5; reference mAb2

Row | Substance | log α (log KP PLBL2 - log KP mAb1) [1] | log α (log KP PLBL2 - log KP mAb2) [2] | log α (log KP PLBL2 - log KP mAb3) [3] | log α (log KP PLBL2 - log KP mAb2) [4] | log α (log KP PLBL2 - log KP mAb2) [5] | log KP (partition coefficient, bound/free) [6] | log α (log KP PLBL2 - log KP mAb1) [7] | log KP (partition coefficient, bound/free) [8] | log α (log KP PLBL2 - log KP mAb1) [9] | log KP (partition coefficient, bound/free) [10] | log KP (partition coefficient, bound/free) [11] | log α (log KP PLBL2 - log KP mAb1) [12] | log α (log KP PLBL2 - log KP mAb2) [13]
1 | phospholipase B-like 2 (PLBL2) | 0 | – | – | – | – | – | – | – | – | – | – | – | –
2 | phospholipase B-like 2 (PLBL2) (enzyme) | – | 0 | -2 | -2 | -2 | 0 | -2 | 0 | 0 | 0 | 0 | -2 | -0.3
